How the values were obtained:
[1] = target: DEVD-cleaving caspases (caspase-3, -6, -7, -8, and -10); experiment: cell-based or functional assay
[2] = target: T1, recombinant active caspase-3 (PharMingen) (UniProt P42574 29-277, limits assumed); experiment: in vitro binding, 35S-labeled protein with recombinant active caspase, immunoprecipitation with caspase-specific antibodies, autoradiography
T1 sequence (looked up): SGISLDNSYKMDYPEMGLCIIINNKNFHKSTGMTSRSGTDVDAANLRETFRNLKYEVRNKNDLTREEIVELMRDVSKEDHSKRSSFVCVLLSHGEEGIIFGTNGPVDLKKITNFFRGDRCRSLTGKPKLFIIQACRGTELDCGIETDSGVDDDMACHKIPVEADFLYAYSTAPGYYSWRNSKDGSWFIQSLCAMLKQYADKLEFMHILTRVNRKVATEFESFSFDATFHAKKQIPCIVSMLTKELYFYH
Procedure: Binding between livin and caspases was tested by incubating ³⁵[S]-methionine-labeled livin with recombinant active caspase-3 and -7, immunoprecipitating with caspase specific antibodies, resolving on SDS-PAGE and visualising by autoradiography. Both caspase-3 and -7 interacted with livin, but not with the deletion mutant DC89 used as a negative control. Survivin, which was previously shown to interact with these caspases using whole cell lysates (Tamm et al., ibid), also bound to both caspases in this in vitro assay.
In vitro binding reactions were performed by combining recombinant active caspase-3 or -7 (PharMingen, San Diego, Calif.) with ³⁵[S]-methionine-labeled survivin or livin (wild-type and the three deletion mutants described herein), prepared using the TNT T7 reticulocyte lysate system (Promega Corp., Madison, Wis.). Samples were incubated with polyclonal antibodies against either caspase-3 or -7 (PharMingen, San Diego, Calif.) in 0.5 ml NETN buffer [20 mM Tris (pH 8.0), 100 mM NaCl, 1 mM EDTA, and 0.2% NP-40] for 1.5 hrs at 4° C. followed by protein G sepharose (Amersham Pharmacia Biotech, Piscataway N.J.) for 30 min. All samples were then washed three times in NETN buffer, boiled in Laemmli buffer, and resolved by 4-20% SDS-PAGE. […]

B1: livin expressed from pcDNA3.1/V5/His-TOPO-livin in transfected HeLa cells, Q96CA5 1-298 (protein, not shown: small tags and cut ends)
chain: MGPKDSAKCLHRGPQPSHWAAGDGPTQERCGPRSLGSPVLGLDTCRAWDHVDGQILGQLRPLTEEEEEEGAGATLSRGPAFPGMGSEELRLASFYDWPLTAEVPPELLAAAGFFHTGHQDKVRCFFCYGGLQSWKRGDDPWTEHAKWFPSCQFLLRSKGRDFVHSVQETHSQLLGSWDPWEEPEDAAPVAPSVPASGYPELPTPRREVQSESAQEPGARDVEAQLRRLQEERTCKVCLDRAVSIVFVPCGHLVCAECAPGLQLCPICRAPVRSRVRTFLS
A decrease in caspase activity (DEVD-AFC cleavage) in HeLa cells treated with TNF-a and cycloheximide [1] of 15 to 20% was found for B1 in this work.

B2: livin deletion mutant DC89 (other)
chain: MGPKDSAKCLHRGPQPSHWAAGDGPTQERCGPRSLGSPVLGLDTCRAWDHVDGQILGQLRPLTEEEEEEGAGATLSRGPAFPGMGS
modifications: 35[S]-methionine-labeled
notes: also called DC86; NH2-terminal fragment (amino acids 1-86); not shown: myc-His tag from the vector pcDNA3.1/myc-His
B2: no binding [2].

From patent publication US20030087319A1 (published 2003)
